This note sets out measurements from patent publication US20220174981A1, “PROLINE TOLERANT TRIPEPTIDYL PEPTIDASES AND USES THEREOF” (DuPont Nutrition Biosciences APS, priority 2014, published 2022).

One data set has as its system H-Ala-Ala-Phe-pNA. Briefly: Effect of pH on TRI045 activity with H-Ala-Ala-Phe-pNA. The class given is biochemical. As for the experimental part: The tripeptide substrate H-Ala-Ala-Phe-pNA (AAF-pNA from BACHEM.com, L-1095.0250) for sedolisin was prepared at 2.5 mg/ml in DMSO. The reaction was prepared by mixing 8.5 μl AAF-pNA, 7 μl DMSO, 32 μl water and 50 μl buffer with pH4.14-6.57, and 0.8 μl or 1.5 ul TRI045. The reaction was started at 30° C. by the addition of the enzyme TRI045. The initial reaction rate was recorded using a microplate reader at every 0.5 min interval at 410 nm in 96 well plate.

A short description of data set [1]: Stability of TRI045 in the presence of pepsin. The class given is biochemical, Swine. The following applies: 500 units pepsin/mL, pH3.5, 40° C., 60 min. As for the experimental part: Pepsin solution: Swine pepsin from Sigma (P7000, 674 Sigma units/mg, www.sigma.com) was used in this example and prepared in MilliQ water at 10000 Sigma unit/ml at 10000 Sigma unit/mL
Pre-incubation mixture contained: 2.5 μl TRI045 sample, 95 μl GAT buffer (50 mM glycine-50 mM acetic acid-50 mM Tris, pH3.5), 5 μl pepsin in milliQ water (10000 Sigma unit/ml) (final pepsin unit concentration: 500 Sigma unit/ml reaction mixture) in a half bottom area 96 well Corning MTP. For control, the pre-incubation mixture contained 5 μl water instead of 5 μl pepsin. The mixture was incubated at 40° C. for 60 min and then kept on ice. For assaying the residual activity, the assay mixture contained the pre-incubation mixture 5 μl, 0.1M acetic acid-sodium acetate (pH4.0) 85 μl, 5 μl H-Ala-Ala-Phe-pNA (2.5 mg/ml) from BACHEM.com (L-1095.0250). The 410 nm reading was followed in a microplate reader every 0.5 min at 30° C. N=2.

The subject of another data set is AAF-pNA. The experiment in a line: Residual activity on AAF-pNA after in vitro digestion with pepsin and pancreatin. The class given is biochemical. As for the experimental part:
In order to test the stability of TRI045 under the in vitro assay conditions described above (incubation in the presence of pepsin at pH3 for 45 min at 40° C. and subsequently in the presence of pancreatin for 60 min at 40° C.). The residual activity of TRI045 was subsequently assayed. The reaction mixture contained 50 μl buffer 0.1M HAC-NaAC (pH5.0), 10 μl the supernatant, and 5 μl AAF-pNA (5 mg/ml in DMSO). The reaction rate was followed at 410 nm and 30° C. every 30 seconds using a microplate reader. As a control, a commercial protease at the same concentration of 1000 ppm was used.

A further data set deals with corn soy feed. Briefly: TRI045 plus pepsin and pancreatin on corn soy feed, OPA and BCA assays. The class given is biochemical. The conditions noted are these: TRI045 1000 ppm, swine pepsin and pancreatin present. How it is done: The in vitro reaction system contained 140 μl 10% (w/v) corn soy feed slurry (14 mg corn soy feed), 10 μl TRI045 in 50m M MES-NaOH pH 6.0, 10 μl swine pepsin (1.14 U/μL in water). The reaction was incubated with shaking at 40° C. for 45 min and subsequently 34 μl swine pancreatin (0.4636 mg/mL in 1M Na-bicarbonate) were added and further incubated for additional 60 min. After incubation, the 96-well plate was centrifuged and supernatants were used for residual TRI045 activity assay and for OPA and BCA assays (see below).
Reference: P. M. Nielsen, D. Petersen and C. Dambmann. Improved Method for Determining Food Protein Degree of Hydrolysis. Journal of Food Science. 66 (2001) 642-646.
For OPA assay the following procedure was carried out.
To quantify the protein concentrations of each protease samples, the Pierce BCA Protein Assay Reagent Kit (Thermo Scientific, cat no. 23228) was used. The TRI045 sample was not purified before quantification. The Pierce BCA Protein Assay Kit is a detergent-compatible formulation based on bicinchoninic acid (BCA) for colorimetric detection and quantification of total proteins. This method combines the well-known reduction of Cu^2+ to Cu^1+ by protein in an alkaline medium with the highly sensitive and selective colorimetric detection of the cuprous cat ion (Cu^+1) using a unique reagent containing bicinchoninic acid. […]

The subject of the next data set is H-Ala-Ala-Ala-pNA. The experiment in a line: Exopeptidase Broad-Specificity Assay (EBSA) with H-Ala-Ala-Ala-pNA; pH and temperature profile. The conditions noted are these: H-Ala-Ala-Ala-pNA; 20 mM Na-glycine pH 2.0-4.0 or Na-acetate pH 4.0-5.5. The class given is biochemical. How it is done: 10 μL of the chromogenic peptide solution (10 mM H-Ala-Ala-Ala-pNA dissolved in dimethyl sulfoxide (DMSO); MW=387.82; Bachem, Switzerland) were added to 130 μl Na-acetate (20 mM, adjusted to pH 4.0 with acetic acid) in a microtiter plate and heated for 5 minutes at 40° C. 10 μL of appropriately diluted enzyme was added and the absorption was measured in a MTP reader (Versa max, Molecular Devices, Denmark) at 405 nm. One katal of proteolytic activity was defined as the amount of enzyme required to release 1 mole of p-nitroaniline per second.
The chromogenic peptide H-Ala-Ala-Ala-pNA (MW=387.82; Bachem, Switzerland) was used to determine the activity of proline tolerant tripeptidyl peptidase in the samples produced as described above. The assay was conducted as follows, 10 μL of the chromogenic peptide solution (10 mM dissolved in dimethyl sulfoxide; DMSO) were added to 130 μl Na-acetate (20 mM, adjusted to pH 4.0 with acetic acid) in a microtiter plate and heated for 5 minutes at 40° C. 10 μL of appropriately diluted enzyme was added and the absorption was measured in an MTP reader (Versa max, Molecular Devices, Denmark) at 405 nm. One katal of proteolytic activity was defined as the amount of enzyme required to release 1 mole of p-nitroaniline per second.
The proline tolerant tripeptidyl peptidase assay described with H-Ala-Ala-Ala-pNA substrate above with modification of using the buffers 20 mM Na-glycine (pH 2.0, 2.5, 3.0, 3.5 and 4.0) or 20 mM Na-acetate buffer (pH 4.0, 4.5 and 5.5) was used to determine the pH profile of proline tolerant tripeptidyl peptidase TRI083 (FIG. 2) and TRI045 (FIG. 24)..
The proline tolerant tripeptidyl peptidase assay described above was used at temperatures 25, 50, 55, 60, 65, 70, 75, 80 and 85° C.
For proline tolerant tripeptidyl peptidase the chromogenic peptide H-Ala-Ala-Ala-pNA was used. The assay was conducted as follows, 27.5 μL of appropriately diluted enzyme was added to 200 μl McIlvaine buffer (20 mM, pH 4.0). After incubation at 50° C. for 5 min, 12.5 μL of the chromogenic peptide solution (5 mg/mL dissolved in dimethyl sulfoxide (DMSO); Sigma-Aldrich, Denmark) were added to the reaction mixture. The reaction was terminated by adding 50 μL of 0.5 M trichloroacetic acid (TCA; Sigma-Aldrich, Denmark). After centrifugation (15,000×g, 5 min), 240 μL of the solution were transferred to a microtiter plate (MTP; Kisker-biotech, Germany) and the absorption was measured in an MTP reader (Molecular Devices, Denmark) at 405 nm. One katal of proteolytic activity was defined as the amount of enzyme required to release 1 mol of p-nitroaniline per second.

B1: TRI045: tripeptidyl peptidase having pre-pro sequence SEQ ID No. 98 and mature protein SEQ ID No. 99 (protein, listed as Arthroderma benhamiae)
chain: CRSLVTTACLRELYGLGDRVTQARDDNRIGVSGFLEEYAQYRDLELFLSRFEPSAKGFNFSEGLIAGGKNTQGGPGSSTEANLDMQYVVGLSHKAKVTYYSTAGRGPLIPDLSQPSQASNNNEPYLEQLRYLVKLPKNQLPSVLTTSYGDTEQSLPASYTKATCDLFAQLGTMGVSVIFSSGDTGPGSSCQTNDGKNATRFNPIYPASCPFVTSIGGTVGTGPERAVSFSSGGFSDRFPRPQYQDNAVKDYLKILGNQWSGLFDPNGRAFPDIAAQGSNYAVYDKGRMTGVSGTSASAPAMAAIIAQLNDFRLAKGSPVLGFLNPWIYSKGFSGFTDIVDGGSRGCTGYDIYSGLKAKKVPYASWNATKGWDPVTGFGTPNFQALTKVLP
B1: the “activity at around pH4 and pH6.5” value with H-Ala-Ala-Phe-pNA (AAF-pNA, 30° C.) is listed as “around 50%”. Besides, the “Relative activity with pH 5.01 as 100%” value with H-Ala-Ala-Phe-pNA (pH 4.1, 0.1M HAC-NaAC) was determined as 59.4%; in the data set on H-Ala-Ala-Phe-pNA (pH 4.6, 0.1M HAC-NaAC) it was 81.7%; in the data set with H-Ala-Ala-Phe-pNA (pH 5.0, 0.1M HAC-NaAC), 100.0%; with H-Ala-Ala-Phe-pNA (pH 5.6, 0.1M HAC-NaAC) it was 80.7%; in the data set on H-Ala-Ala-Phe-pNA (pH 6.0, 0.1M Mes-NaOH), 72.2%; in the data set with H-Ala-Ala-Phe-pNA (pH 6.6, 0.1M Mes-NaOH), 48.5%. The residual activity result in data set [1] is “over 90%”. Further, the “time stable to pepsin and pancreatin” value in the data set with AAF-pNA (40° C.) is recorded as “at least 100 minutes”. The reaction rate in the data set on AAF-pNA (1000 ppm, after pepsin 45 min and pancreatin 60 min at 40° C., control 4.3 mOD/min) was 19.3 mOD/min. Also, in the data set with AAF-pNA (105 min at 40° C., pH range of 3 to 7), the “stability to pepsin and pancreatin in the presence of corn soy feed” value was “stable to pepsin and pancreatin”. Also, the “residual activity on AAF-pNA relative to the commercial protease” value with AAF-pNA (after subtraction of the control (4.3 mOD/min)) is 2.2 times. Moreover, the “increase of release of free amino groups from corn soy feed (OPA value)” value in the data set on corn soy feed was 9%. The “increase of protein solubility” value with corn soy feed (BCA) amounted to 5%. Besides, the “Optimum pH” value in the data set on H-Ala-Ala-Ala-pNA came to 4.0.
